Measured values reported in paper PMC10339645, “Kinetic characterization of annotated glycolytic enzymes present in cellulose-fermenting Clostridium thermocellum suggests different metabolic roles” (Biotechnology for Biofuels and Bioproducts, 2023).

Assays:
PfkB [1] = molecular target: T1, PfkB (Acetivibrio thermocellus, UniProt A3DCE8); assay: coupled NADP+ reduction at […] nm, relative activity; type: biochemical; details: inhibitor; GTP as phosphate donor 2.24 mM; fructose 2.24 mM; 55 °C
T1 construct: gene Cthe_0389; N-terminal His6 tag with ~4-kDa linker (pRSET-A, plasmid pAHCT0389), tag kept; codon-optimized, E. coli T7 Shuffle; ~40 kDa monomer

PfkB [2] = molecular target: T1, PfkB; assay: coupled NADP+ reduction at […] nm, relative activity; type: biochemical; details: inhibitor; fructose 2.24 mM, phosphate donor 2.24 mM; 55 °C
PfkA [3] = molecular target: T2, PfkA (Acetivibrio thermocellus, UniProt A3DEW4); assay: coupled NADH oxidation at […] nm, relative activity; type: biochemical; details: inhibitor; 2 mM F6P, 2 mM ATP or GTP; NH4Cl; 55 °C
T2 construct: N-terminal His6 tag with ~4-kDa linker (pRSET-A, plasmid pAHCT1261), tag kept; codon-optimized, E. coli T7 Shuffle; ~40 kDa monomer

PfkA [4] = molecular target: T2, PfkA; assay: coupled NADH oxidation at […] nm, relative activity; type: biochemical; details: inhibitor; GTP as phosphate donor; 2.5 mM MgCl2; NH4Cl; 55 °C
purified protein [5] = substrate: Nc1nc2c(ncn2[C@@H]2O[C@H](COP(=O)(O)OP(=O)(O)OP(=O)(O)O)[C@@H](O)[C@H]2O)c(=O)[nH]1; assay: purified protein; type: biochemical, Acetivibrio thermocellus
purified protein [6] = substrate: Nc1ncnc2c1ncn2[C@@H]1O[C@H](COP(=O)(O)OP(=O)(O)OP(=O)(O)O)[C@@H](O)[C@H]1O; assay: purified protein; type: biochemical, Acetivibrio thermocellus
[7] = F6P 2 mM constant, 5 mM MgCl2, 2 mM NH4Cl, pH 7.5, 55 °C
[8] = F6P 2 mM constant, 5 mM MgCl2, 2 mM NH4Cl, pH 7.5, 55 °C, extrapolated beyond 2 mM ATP
[9] = fructose 2 mM constant, 5 mM MgCl2, pH 7.5, 55 °C

For `Nc1ncnc2c1ncn2[C@@H]1O[C@H](COP(=O)(O)OP(=O)(O)O)[C@@H](O)[C@H]1O` [ADP], the “% relative activity at 2.24 mM” value (PfkB [1]) was 38%.

In the case of `OC[C@H]1OC(O)[C@H](O)[C@@H](O)[C@H]1O` (stereo partly shown) [galactose], the “relative activity at 2.24 mM” value (PfkB [2]) is reported as “Galactose also caused a noticeable decrease in activity”.

For `C=C(OP(=O)(O)O)C(=O)O` [PEP], the “relative activity at 2 mM” value (PfkA [3]) was “addition of PEP or PPi caused a decrease in the activity of PfkA”.

With `Nc1ncnc2c1ncn2[C@@H]1O[C@H](COP(=O)(O)O)[C@@H](O)[C@H]1O` [AMP] the “% relative activity at 2.24 mM” value (PfkB [1]) was 38%.

`O=P(O)(O)OP(=O)(O)O` [PPi] was tested, and the “% relative activity at 0.05 mM” value (PfkA [4]) was 21%.

B1: PfkA (Acetivibrio thermocellus ATCC 27405) (protein)
chain: MSSVRTIGVLTSGGDAPGMNAAIRSVVRTGLYYGFKVLGIRKGFNGLINGDIEELTARSVGDIIHRGGTILQTARSPQFKTEEGLKKAMSMAKVFGIDALVVIGGDGSYRGARDISKLGLNVIGIPGTIDNDIGCTDYTIGFDTAMNTVQDAIDKIRDTAYSHERCSVLEVMGRHAGYIAVNVSISGGAEAVVLPEKPFDMDTDVIKPIIEGRNRGKKHYLVIVAEGGEGKAIEIAKEITEKTGIEARATILGHIQRGGSPTVYDRVMASQMGAKAVEVLMENKRNRVIVFKDNQIGDMDLEEALQVKKTISEDLIQLSKILAL
notes: N-terminal His6 tag with ~4-kDa linker (pRSET-A, plasmid pAHCT1261), tag kept; codon-optimized, E. coli T7 Shuffle; ~40 kDa monomer
B1 gave a Km (purified protein [5]; [7]) of 200 ± 20 µM, a Vmax (purified protein [5]; [7]) of 282 µmol/min/mg and a Km (purified protein [6]; [8]) of 2500 ± 960 µM. For the same molecule, the Vmax (purified protein [6]; [8]) was 430 µmol/min/mg.

B2: PfkB (Acetivibrio thermocellus ATCC 27405) (protein)
chain: MFDVVAVGELLIDFLPAGTNENGMPLFSSNPGGAPANVLAMLSKLGAKTAFIGKVGKDGFGQFLKATLDNAGIDTSNLLMSSSEMTTLAFVHLNEKGDRSFSFYRKHCADVSLDAGELDKDLLRTCHFLHFGAVSLTDEPSRTATLEAARIAKEAGAIISYDPNYRPALWSNEHEARKYMLKAVEYADLVKVSEEELWLLAESEDFSKGAHKLLAMGPSVVFVTCGEKGSYVFTGSCKANHCGYDVKVVDTTGAGDAFVGAMLWQLRGMSLEEISQICEQKWGELLAFSNAAGTIVATKKGAIPAMPDLDTINTFMRQFLEEK
notes: N-terminal His6 tag with ~4-kDa linker (pRSET-A, plasmid pAHCT0389), tag kept; codon-optimized, E. coli T7 Shuffle; ~40 kDa monomer
For B2, the Km (purified protein [5]; [9]) was 200 ± 80 µM, the Vmax (purified protein [5]; [9]) was 124 µmol/min/mg and the Km (purified protein [6]; [9]) was 400 ± 100 µM. It also gave a Vmax (purified protein [6]; [9]) of 110 µmol/min/mg.
